Experimental data as given in patent publication US20030083261A1, “Class of 12mer peptides that inhibit the function of the mitotic check point protein Mad2” (priority 2001, published 2003).
Entries after “also recorded” stand apart in the source; their conditions may differ. No end group written: not given here.

Tests used:
[1] = in words; cited from earlier work
[2] = oral administration; cited from earlier work
[3] = in vivo; cited from earlier work
[4] = oral tablet; cited from earlier work
Mad2 [5] = target: T1, Mad2 (Homo sapiens, UniProt Q13257); experiment: ELISA-type assay of phage display clones on Mad2; type: binding; parameters: made in house; conditions: phage clone on Mad2
T1 sequence (Q13257 whole entry): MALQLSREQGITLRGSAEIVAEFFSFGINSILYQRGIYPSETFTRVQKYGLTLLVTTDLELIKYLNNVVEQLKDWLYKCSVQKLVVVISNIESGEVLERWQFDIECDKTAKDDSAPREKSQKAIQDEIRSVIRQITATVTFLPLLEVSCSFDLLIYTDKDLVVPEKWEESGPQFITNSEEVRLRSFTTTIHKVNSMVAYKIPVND
Excerpt: Phage display library with Mad2 was screened and several clones were sequenced and analyzed using ELISA-type assays.
By coincidence, the MBP1 sequence was isolated again and the MBP1 phage clone gave an ELISA reading of 0.62 (OD at 410 nm). […] The peptides with higher ELISA readings than MBP1 are synthesized. As these peptides, including MBP1, contain tryptophan in their sequences, tryptophan fluorescence assay cannot be used to measure the affinities of these peptides toward Mad2. Alternative assays are developed and used.

[6] = cited from earlier work
Mad2 [7] = target: T1, Mad2; experiment: 1H-15N HSQC NMR binding and competition on 15N-labeled Mad2; parameters: made in house; conditions: for binding to Mad2: change of the HSQC spectrum of Mad2: addition of peptide to 15N-labeled Mad2; for relative affinity toward Mad2 by competition: two peptides added to Mad2, HSQC spectrum
Protocol: To determine whether MBP1 and Cdc20 bind to the same site on Mad2. Mad2 was pre-incubated with an excess amount of Cdc20P1. MBP1 was then added to the pre-formed Mad2-Cdc20P1 complex. HSQC spectra were taken before and after the addition of MBP1. Prior to the addition of MBP1, Mad2 formed a complex with Cdc20P1 as indicated by the HSQC spectrum. After the addition of MBP1, the HSQC spectrum of the resulting sample looked identical to that of the Mad2-MBP1 complex. Therefore, MBP1 effectively displaced Cdc20P1 away from Mad2 and formed a complex with Mad2 in the presence of Cdc20P1. […] However, it is also conceivable that MBP1 affects the binding of Cdc20P1 to Mad2 in an allosteric fashion.
The relative affinity of Mad2-MBP2 was compared to Mad2-Cdc20P1 and Mad2-MBP1. […] However, when both MBP1 and MBP2 were added to Mad2, the HSQC spectrum of the resulting sample contained two sets of signals of roughly equal intensity: one set of signals belonged to Mad2-MBP1 while the other set was from Mad2-MBP2. […] Furthermore, the exchange between these two bound forms of Mad2 occurs with a rate that is slow on the NMR time scale.

Mad2 [8] = target: T1, Mad2; experiment: In vitro APC ubiquitination assay (Mad2 inhibition of APC^Cdc20, cyclin B1 substrate); type: biochemical; conditions: peptide at 100 μM
Excerpt: To determine whether binding of MBP1 affects the association of Mad2 with the intact Cdc20, the inventors performed an in vitro APC ubiquitination assay. In this assay, a Myc-epitope tagged N-terminal fragment of human cyclin B1 was used as the substrate. Purified recombinant human E1, UbcH10 (E2), ATP, and ubiquitin were also included (FIG. 3A). In the presence of active APC (E3), ubiquitin was ligated to the lysine side chains of cyclin B1, forming cyclin-ubiquitin conjugates with isopeptide linkages. The reaction mixture was then analyzed by SDS-PAGE followed by immuno-blotting with an anti-Myc antibody. The appearance and the intensity of the higher molecular weight bands were then used as the criteria for the activity of APC.
Addition of the APC activator, Cdc20, greatly stimulated the activity of APC. […] Therefore, MBP1 can block the biochemical function of Mad2 in vitro.

HeLa cells = experiment: Mitotic arrest by GFP-Mad2 overexpression in HeLa cells; type: cell-based; conditions: co-transfection of plasmid encoding the peptide; cell shape, DNA-staining, FACS
Excerpt: Overexpression of Mad2 in HeLa cells causes a prolonged mitotic arrest because Mad2 at elevated levels inhibits APCCdc20 in these cells in the absence of spindle damage. […] The cells round up when they undergo mitosis while the interphase cells are flat. […] The cell cycle status of the transfected cells was also confirmed by DNA-staining and by FACS analysis.

Mad2 [9] = target: T1, Mad2; experiment: Aggregation of Mad2-peptide complex over time (HSQC after incubation at 30° C.); parameters: made in house; conditions: incubation at 30° C. / extended periods of time
Protocol: To confirm if the complex aggregated over time, an HSQC spectrum was acquired on a freshly prepared ^15N-Mad2-Cdc20P1 sample. This sample was then incubated at 30° C. (the temperature for NMR data acquisition) for 48 hours and another HSQC was acquired.

Mad2 [10] = target: T1, Mad2; experiment: Tryptophan fluorescence titration of Mad2 with peptide; type: binding; parameters: made in house; conditions: addition of peptide to saturation
Protocol: Binding affinity between Mad2 and Cdc20P1 was determined. Two tryptophan residues are located in the proximity of the C-terminal tail of Mad2 that is involved in binding to Cdc20. Thus, binding of Cdc20P1 may affect the tryptophan fluorescence of Mad2. The intensity of tryptophan fluorescence of Mad2 was indeed reduced by 70% upon the addition of Cdc20P1 to saturation. […] This is consistent with the fact that binding of Cdc20P1 to Mad2 occurs with an intermediate exchange rate on the NMR time scale. The relative low affinity of Cdc20P1 toward Mad2 may also be the cause of the slow aggregation phenomenon of the Mad2-Cdc20P1 complex. Thus, Mad2 ligands with higher affinity for Mad2 are required for structural studies.

[11] = target: T2, Mad2 protein (mitotic checkpoint protein Mad2, purified recombinant) (UniProt Q13257 1-205); experiment: tryptophan fluorescence titration of Mad2 with Cdc20P1
T2 construct: also called 15N-Mad2; free Mad2
T2 sequence (Q13257 whole entry): as above

N[C@@H](Cc1ccc(N(CCCl)CCCl)cc1)C(=O)O [Melphalan, 4-[bis(2-chloroethyl)amino]-L-phenylalanine]
solubility in water [1]: insoluble in water | fraction of patients with multiple myeloma showing a favorable response [2]: one third to one half

O.O=P1(N(CCCl)CCCl)NCCCO1 (stereo not shown) [Cyclophosphamide, 2H-1,3,2-Oxazaphosphorin-2-amine, N,N-bis(2-chloroethyl)tetrahydro-, 2-oxide, monohydrate]
stability in the gastrointestinal tract [3]: stable in the gastrointestinal tract

O=C(O)CCCc1ccc(N(CCCl)CCCl)cc1 [Chlorambucil, 4-[bis(2-chlorethyl)amino] benzenebutanoic acid]
absorption from the gastrointestinal tract [4]: rapidly and completely absorbed from the gastrointestinal tract

GWWHIPSPVLRP [clone 11]
ELISA reading (Mad2 [5]): 1.37 OD at 410 nm

O=NN(CCCl)C(=O)NC1CCCCC1 [Lomustine, 1-(2-chloro-ethyl)-3-cyclohexyl-1 nitrosourea]
tissue levels versus plasma levels ([6]; 15 minutes after intravenous administration): comparable to plasma levels | radioactivity excreted in the form of degradation products ([6]; within 24 hours, oral radioactive lomustine about 30 mg/m^2 to 100 mg/m^2): about half

MBP1: 12-residue Mad2-binding peptide identified by phage display, contains tryptophan; probably SWYSYPPPQRAV (SEQ ID NO:2)
binding to Mad2: change of the HSQC spectrum of Mad2 (Mad2 [7]): caused dramatic chemical shift changes of the majority of signals | relative affinity toward Mad2 by competition (Mad2 [7]): affinity of MBP1 toward Mad2 is higher than that of Cdc20P1; also recorded: MBP1 and MBP2 bind to Mad2 with very similar affinities | effect on the ability of Mad2 to inhibit the ubiquitination activity of APC^Cdc20 (Mad2 [8]): blocked the ability of Mad2 to inhibit APC^Cdc20; also recorded: prevented Mad2 from inhibiting APCCdc20 | ELISA reading (Mad2 [5]): 0.62 OD at 410 nm | effect on mitotic arrest caused by GFP-Mad2 overexpression (HeLa cells): counteracted the action of Mad2; also recorded: did not arrest in mitosis | aggregation of the Mad2-peptide complex (Mad2 [9]): stable for extended periods of time and did not aggregate

O=NN(CCCl)C(=O)NCCCl [Carmustine, 1,3 bis (2-chloroethyl)-1-nitrosourea]
solubility in water [1]: poorly soluble in water

MBP2: Mad2-binding peptide from phage display sharing strong sequence similarity with Cdc20P1, no tryptophans; probably DARIIKLPVPKP (SEQ ID NO:3)
binding to Mad2: change of the HSQC spectrum of Mad2 (Mad2 [7]): induced dramatic chemical shift changes of the majority of Mad2 signals | relative affinity toward Mad2 by competition (Mad2 [7]): binds to Mad2 with a higher affinity than Cdc20P1; also recorded: MBP1 and MBP2 bind to Mad2 with very similar affinities | aggregation of the Mad2-peptide complex (Mad2 [9]): did not form high molecular weight aggregates

DVEEAKILRLSGKP [Cdc20P1]
reduction of intensity of tryptophan fluorescence of Mad2 (Mad2 [10]): 70%

B1: Cdc20P1 (14-amino acid peptide corresponding to residues 124-137 of Cdc20) (peptide, UniProt Q12834 124-137, looked up)
peptide: DVEEAKILRLSGKP
notes: also called Cdc20P1 peptide; 15N-Cdc20P1
Kd [11]: 3.6 µM
